Measurements taken from publication PMC11472053, “Structural basis of DNA recognition by BEN domain proteins reveals a role for oligomerization in unmethylated DNA selection by BANP” (Nucleic Acids Research, 2024).

Tests used:
BANP BEN WT (human) = target: T1, BANP BEN WT (human) (UniProt Q8N9N5); experiment: ITC; settings: 5-methyl-C at positions 5 and 7 of each strand (fully methylated); ITC: 20 mM Tris pH 7.5, 200 mM NaCl, 2 mM beta-mercaptoethanol, 20 C; EMSA: 20 mM Tris pH 7.0, 200 mM NaCl, 2 mM DTT, 4 C, 1.2% agarose in TAE
T1 sequence: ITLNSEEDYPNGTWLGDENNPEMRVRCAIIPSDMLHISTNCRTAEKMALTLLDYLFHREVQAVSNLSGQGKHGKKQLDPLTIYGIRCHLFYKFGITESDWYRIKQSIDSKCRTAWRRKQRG

[1] = target: the molecule itself; experiment: cross-linking; purified full-length BANP in 20 mM HEPES pH 7.5, 200 mM NaCl, 2 mM DTT; 0.06% glutaraldehyde, on ice 10 min, quenched with Tris; then Superdex 200 10/300 GL and SDS-PAGE of the fractions
BANP CC-BEN (ΔDBD) = target: T2, BANP CC-BEN (ΔDBD) (human, UniProt Q8N9N5 1-360); experiment: ITC; ITC: 20 mM Tris pH 7.5, 200 mM NaCl, 2 mM beta-mercaptoethanol, 20 C; EMSA: 20 mM Tris pH 7.0, 200 mM NaCl, 2 mM DTT, 4 C, 1.2% agarose in TAE; settings: protein: recombinant; tags: His-SUMO or His-MBP, cleaved; blunt, self-complementary
T2 sequence: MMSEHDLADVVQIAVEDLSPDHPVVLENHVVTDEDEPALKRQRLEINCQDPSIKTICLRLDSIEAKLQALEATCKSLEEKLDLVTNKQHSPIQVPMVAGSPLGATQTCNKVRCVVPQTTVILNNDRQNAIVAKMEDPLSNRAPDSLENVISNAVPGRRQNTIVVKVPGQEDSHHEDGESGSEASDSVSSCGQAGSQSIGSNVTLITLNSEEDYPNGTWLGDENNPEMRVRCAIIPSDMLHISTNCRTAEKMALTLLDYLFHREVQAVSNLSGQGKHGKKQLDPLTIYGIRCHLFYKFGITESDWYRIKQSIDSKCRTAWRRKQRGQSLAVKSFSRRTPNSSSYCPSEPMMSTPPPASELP

BANP full-length WT = target: T3, BANP full-length WT (human, UniProt Q8N9N5 1-519); experiment: as above; settings: protein: recombinant; tags: His-SUMO or His-MBP, cleaved; chain copies: 4; blunt, self-complementary
T3 sequence: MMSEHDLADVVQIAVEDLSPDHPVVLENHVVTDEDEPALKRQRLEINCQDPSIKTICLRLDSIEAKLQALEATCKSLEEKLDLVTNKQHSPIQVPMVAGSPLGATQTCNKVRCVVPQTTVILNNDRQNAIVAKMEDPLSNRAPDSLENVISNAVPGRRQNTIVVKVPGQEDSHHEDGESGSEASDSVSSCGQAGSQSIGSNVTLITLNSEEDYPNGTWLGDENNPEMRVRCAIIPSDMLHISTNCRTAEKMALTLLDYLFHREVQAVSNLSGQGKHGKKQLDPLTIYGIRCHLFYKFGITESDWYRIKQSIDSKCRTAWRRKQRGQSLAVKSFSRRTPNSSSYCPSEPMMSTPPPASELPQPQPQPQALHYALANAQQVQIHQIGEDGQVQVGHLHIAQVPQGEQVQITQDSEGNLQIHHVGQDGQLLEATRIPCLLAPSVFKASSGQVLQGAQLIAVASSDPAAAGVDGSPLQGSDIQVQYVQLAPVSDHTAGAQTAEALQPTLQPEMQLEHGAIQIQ

BANP ΔCC = target: T4, BANP ΔCC (human, UniProt Q8N9N5 90-519); experiment: as above; settings: protein: recombinant; tags: His-SUMO or His-MBP, cleaved; blunt, self-complementary
T4 sequence: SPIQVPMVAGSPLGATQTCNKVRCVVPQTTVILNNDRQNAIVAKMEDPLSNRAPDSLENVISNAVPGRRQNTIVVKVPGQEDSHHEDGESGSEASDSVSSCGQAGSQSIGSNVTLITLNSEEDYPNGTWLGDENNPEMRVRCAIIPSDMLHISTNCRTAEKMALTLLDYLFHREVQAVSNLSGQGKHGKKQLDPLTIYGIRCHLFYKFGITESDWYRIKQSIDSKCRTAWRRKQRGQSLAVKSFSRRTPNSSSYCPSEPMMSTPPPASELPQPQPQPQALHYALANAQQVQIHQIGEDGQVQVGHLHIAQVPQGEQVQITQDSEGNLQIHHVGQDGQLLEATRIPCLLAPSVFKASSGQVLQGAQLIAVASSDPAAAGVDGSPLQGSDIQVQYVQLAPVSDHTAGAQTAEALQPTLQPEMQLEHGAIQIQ

BANP BEN-DBD = target: T5, BANP BEN-DBD (human, UniProt Q8N9N5 205-519); experiment: as above; settings: protein: recombinant; tags: His-SUMO or His-MBP, cleaved; blunt, self-complementary
T5 sequence: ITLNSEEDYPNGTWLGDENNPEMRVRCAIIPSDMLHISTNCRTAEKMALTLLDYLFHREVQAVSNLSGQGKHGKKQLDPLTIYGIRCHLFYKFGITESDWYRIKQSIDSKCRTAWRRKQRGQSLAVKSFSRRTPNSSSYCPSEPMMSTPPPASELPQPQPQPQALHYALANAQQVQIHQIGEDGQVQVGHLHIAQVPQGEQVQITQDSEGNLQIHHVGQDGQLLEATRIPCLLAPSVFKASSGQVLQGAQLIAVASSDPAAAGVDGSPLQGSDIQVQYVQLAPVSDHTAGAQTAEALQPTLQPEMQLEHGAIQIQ

BANP BEN WT [2] = target: T6, BANP BEN WT (human, UniProt Q8N9N5 205-325); experiment: EMSA; ITC: 20 mM Tris pH 7.5, 200 mM NaCl, 2 mM beta-mercaptoethanol, 20 C; EMSA: 20 mM Tris pH 7.0, 200 mM NaCl, 2 mM DTT, 4 C, 1.2% agarose in TAE; settings: protein: recombinant; tags: His-SUMO or His-MBP, cleaved; chain copies: 2; blunt
T6 sequence: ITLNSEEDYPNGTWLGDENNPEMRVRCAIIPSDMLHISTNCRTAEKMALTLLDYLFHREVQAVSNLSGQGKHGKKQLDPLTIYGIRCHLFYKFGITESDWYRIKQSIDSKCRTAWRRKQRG

NACC1 BEN WT [3] = target: T7, NACC1 BEN WT (human, UniProt Q96RE7 341-477); experiment: as above; settings: protein: recombinant; tags: His-SUMO or His-MBP, cleaved; blunt
T7 sequence: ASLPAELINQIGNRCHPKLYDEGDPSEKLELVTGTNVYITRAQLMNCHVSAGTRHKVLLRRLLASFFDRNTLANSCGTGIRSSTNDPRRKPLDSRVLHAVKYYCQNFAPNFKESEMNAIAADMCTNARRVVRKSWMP

NACC1 BEN WT [4] = target: T7, NACC1 BEN WT; experiment: crystal structure; 2.3 A; PDB assignment from column order; ITC: 20 mM Tris pH 7.5, 200 mM NaCl, 2 mM beta-mercaptoethanol, 20 C; EMSA: 20 mM Tris pH 7.0, 200 mM NaCl, 2 mM DTT, 4 C, 1.2% agarose in TAE; settings: protein: recombinant; tags: His-SUMO or His-MBP, cleaved; 10 bp, 5' overhang 1 nt (T) each strand
BANP BEN WT [5] = target: T6, BANP BEN WT; experiment: crystal structure; 2.6 A; PDB assignment from column order; ITC: 20 mM Tris pH 7.5, 200 mM NaCl, 2 mM beta-mercaptoethanol, 20 C; EMSA: 20 mM Tris pH 7.0, 200 mM NaCl, 2 mM DTT, 4 C, 1.2% agarose in TAE; settings: protein: recombinant; tags: His-SUMO or His-MBP, cleaved; chain copies: 2; 12 bp, 5' overhang 1 nt (C) each strand

ATCTCGCGAGAT (double strand) [12-mCGmCG]
Kd (BANP BEN WT (human)): 5.7 µM

B1: full-length BANP (natural protein, human, UniProt Q8N9N5 1-519, looked up)
chain: MMSEHDLADVVQIAVEDLSPDHPVVLENHVVTDEDEPALKRQRLEINCQDPSIKTICLRLDSIEAKLQALEATCKSLEEKLDLVTNKQHSPIQVPMVAGSPLGATQTCNKVRCVVPQTTVILNNDRQNAIVAKMEDPLSNRAPDSLENVISNAVPGRRQNTIVVKVPGQEDSHHEDGESGSEASDSVSSCGQAGSQSIGSNVTLITLNSEEDYPNGTWLGDENNPEMRVRCAIIPSDMLHISTNCRTAEKMALTLLDYLFHREVQAVSNLSGQGKHGKKQLDPLTIYGIRCHLFYKFGITESDWYRIKQSIDSKCRTAWRRKQRGQSLAVKSFSRRTPNSSSYCPSEPMMSTPPPASELPQPQPQPQALHYALANAQQVQIHQIGEDGQVQVGHLHIAQVPQGEQVQITQDSEGNLQIHHVGQDGQLLEATRIPCLLAPSVFKASSGQVLQGAQLIAVASSDPAAAGVDGSPLQGSDIQVQYVQLAPVSDHTAGAQTAEALQPTLQPEMQLEHGAIQIQ
notes: BANP, human, full length; also called SMAR1; source: E. coli Rosetta (DE3), purified (nickel column, HiTrap Q, gel filtration)
stoichiometry N [1]: 4

B2: 12-mCGmCG (dsDNA)
DNA 1: ATCTCGCGAGAT
DNA 2: ATCTCGCGAGAT
modifications: 5-methyl-C at positions 5 and 7 of each strand (fully methylated)
binding result (BANP CC-BEN (ΔDBD)): no binding | binding result (BANP full-length WT): no binding | binding result (BANP ΔCC): no binding | binding result (BANP BEN-DBD): no binding

B3: 12-AT (dsDNA)
DNA 1: TTTTATATATAA
DNA 2: TTATATATAAAA
binding result (BANP BEN WT [2]): no binding | binding result (NACC1 BEN WT [3]): no binding

B4: NACC1 crystal DNA (dsDNA)
DNA 1: TTTACATGTAA
DNA 2: TTTACATGTAA
binding result (NACC1 BEN WT [4]): binds

B5: BANP crystal DNA (dsDNA)
DNA 1: CATCTCGCGAGAT
DNA 2: CATCTCGCGAGAT
binding result (BANP BEN WT [5]): binds
